Data: PMC9482650, “Quantitative fragmentomics allow affinity mapping of interactomes” (Nature Communications, 2022)
Positions count from the first letter of the chain named.

B1: BPIFA2, Q96DR5 (peptide)
chain: QHKTQLQTLI
B2: ABCA7, Q8IZY2 (peptide)
chain: DDPSTAETVL
B3: GJD4, Q96KN9 (peptide)
chain: HLRARKSEWV

Each binder was assayed against T1, LNX2_3, Q8N448 (assay: holdup assay). Conditions: plain residues with an end cap or a label only (N-terminal biotin on a linker: ado-ado).
T1 sequence (Q8N448 463-564, limits assumed, looked up): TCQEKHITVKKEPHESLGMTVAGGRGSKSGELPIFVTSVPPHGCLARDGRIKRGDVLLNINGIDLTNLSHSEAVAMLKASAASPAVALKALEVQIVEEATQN
Set-up: key: below the threshold = too weak to quantify, mostly under pKd 3.1 to 4
B1 was tested, and the pKd was “below the threshold”.
With B2 the pKd was “below the threshold”.
B3 was tested, and the pKd was “below the threshold”.

What follows are binders tested against Inadl_1, Q8NI35 (assay: holdup assay). Conditions: plain residues with an end cap or a label only (N-terminal biotin on a linker: ado-ado).
Chain of Inadl_1, Q8NI35 (Q8NI35 113-229): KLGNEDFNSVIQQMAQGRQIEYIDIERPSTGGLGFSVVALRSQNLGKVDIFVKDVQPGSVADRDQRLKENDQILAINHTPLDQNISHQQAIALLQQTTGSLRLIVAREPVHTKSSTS
Set-up: key: below the threshold = too weak to quantify, mostly under pKd 3.1 to 4
For B1, the pKd was “below the threshold”.
For B2, the pKd was “below the threshold”.
B3 was tested, and the pKd was “below the threshold”.

These binders were tested against DLG4_1, P78352 (assay: holdup assay). Conditions: plain residues with an end cap or a label only (N-terminal biotin on a linker: ado-ado).
Chain of DLG4_1, P78352 (P78352 62-152): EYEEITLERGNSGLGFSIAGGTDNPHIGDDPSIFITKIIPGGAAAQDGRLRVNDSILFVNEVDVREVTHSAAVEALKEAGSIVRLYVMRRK
Set-up: key: below the threshold = too weak to quantify, mostly under pKd 3.1 to 4
Binder B1 has a pKd of 4.38.
With B2 the pKd was “below the threshold”.
With B3 the pKd was “below the threshold”.

Each binder was assayed against ARHGEF12, Q9NZN5-2 (assay: holdup assay). Conditions: plain residues with an end cap or a label only (N-terminal biotin on a linker: ado-ado).
Chain of ARHGEF12, Q9NZN5-2 (Q9NZN5 other isoform, or with tags, fused parts or gaps): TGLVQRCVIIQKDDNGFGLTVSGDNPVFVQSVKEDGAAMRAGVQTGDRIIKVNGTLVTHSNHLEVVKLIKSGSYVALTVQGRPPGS
Set-up: key: below the threshold = too weak to quantify, mostly under pKd 3.1 to 4
For B1, the pKd was 4.33.
Binder B2 has a pKd of 4.63.
In the case of B3, the pKd is reported as “below the threshold”.

What follows are binders tested against T2, DVL3, Q92997 (assay: holdup assay). Conditions: plain residues with an end cap or a label only (N-terminal biotin on a linker: ado-ado).
T2 sequence (Q92997 244-331, limits assumed, looked up): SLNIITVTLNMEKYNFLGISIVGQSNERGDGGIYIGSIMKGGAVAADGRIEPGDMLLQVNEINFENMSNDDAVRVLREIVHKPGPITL
Set-up: key: below the threshold = too weak to quantify, mostly under pKd 3.1 to 4
In the case of B1, the pKd is reported as “below the threshold”.
With B2 the pKd was “below the threshold”.
For B3, the pKd was 3.79.

Each binder was assayed against T3, PDZD7_3, Q9H5P4 (assay: holdup assay). Conditions: plain residues with an end cap or a label only (N-terminal biotin on a linker: ado-ado).
T3 sequence (Q9H5P4 857-944, limits assumed, looked up): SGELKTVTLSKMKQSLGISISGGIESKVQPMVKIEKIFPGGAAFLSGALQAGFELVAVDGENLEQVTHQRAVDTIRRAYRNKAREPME
Set-up: key: below the threshold = too weak to quantify, mostly under pKd 3.1 to 4
B1 was tested, and the pKd was 5.15.
Binder B2 has a pKd of 4.98.
For B3, the pKd was “below the threshold”.

These binders were tested against T4, LIN7C, Q9NUP9 (assay: holdup assay). Conditions: plain residues with an end cap or a label only (N-terminal biotin on a linker: ado-ado).
T4 sequence (Q9NUP9 88-185, limits assumed, looked up): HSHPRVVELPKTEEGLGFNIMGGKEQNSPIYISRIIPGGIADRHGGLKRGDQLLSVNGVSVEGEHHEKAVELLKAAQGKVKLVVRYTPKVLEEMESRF
Set-up: key: below the threshold = too weak to quantify, mostly under pKd 3.1 to 4
B1 was tested, and the pKd was “below the threshold”.
In the case of B2, the pKd is reported as “below the threshold”.
In the case of B3, the pKd is reported as “below the threshold”.

These binders were tested against Inadl_8, Q8NI35 (assay: holdup assay). Conditions: plain residues with an end cap or a label only (N-terminal biotin on a linker: ado-ado).
Chain of Inadl_8, Q8NI35 (Q8NI35 1425-1530): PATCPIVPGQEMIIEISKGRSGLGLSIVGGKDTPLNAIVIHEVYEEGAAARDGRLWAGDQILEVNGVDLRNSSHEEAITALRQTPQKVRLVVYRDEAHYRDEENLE
Set-up: key: below the threshold = too weak to quantify, mostly under pKd 3.1 to 4
B1 showed a pKd of 3.54.
For B2, the pKd was “below the threshold”.
B3 gave a pKd of 3.59.

The binders below were run against T5, APBA3_1, O96018 (assay: holdup assay). Conditions: plain residues with an end cap or a label only (N-terminal biotin on a linker: ado-ado).
T5 sequence (O96018 389-490, limits assumed, looked up): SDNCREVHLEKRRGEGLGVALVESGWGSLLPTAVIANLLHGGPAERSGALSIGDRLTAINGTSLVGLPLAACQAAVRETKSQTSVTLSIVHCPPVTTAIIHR
Set-up: key: below the threshold = too weak to quantify, mostly under pKd 3.1 to 4
With B1 the pKd was “below the threshold”.
With B2 the pKd was “below the threshold”.
In the case of B3, the pKd is reported as “below the threshold”.

These binders were tested against T6, MPP2, Q14168 (assay: holdup assay). Conditions: plain residues with an end cap or a label only (N-terminal biotin on a linker: ado-ado).
T6 sequence (Q14168 180-250, limits assumed, looked up): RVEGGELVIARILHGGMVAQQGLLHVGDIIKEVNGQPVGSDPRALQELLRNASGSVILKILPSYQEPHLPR
Set-up: key: below the threshold = too weak to quantify, mostly under pKd 3.1 to 4
B1 was tested, and the pKd was “below the threshold”.
With B2 the pKd was “below the threshold”.
In the case of B3, the pKd is reported as “below the threshold”.

These binders were tested against T7, FRMPD1, Q5SYB0 (assay: holdup assay). Conditions: plain residues with an end cap or a label only (N-terminal biotin on a linker: ado-ado).
T7 sequence (Q5SYB0 52-145, limits assumed, looked up): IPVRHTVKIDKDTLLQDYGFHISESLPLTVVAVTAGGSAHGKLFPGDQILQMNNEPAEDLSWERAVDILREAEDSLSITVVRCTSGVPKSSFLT
Set-up: key: below the threshold = too weak to quantify, mostly under pKd 3.1 to 4
B1 was tested, and the pKd was “below the threshold”.
B2 was tested, and the pKd was “below the threshold”.
With B3 the pKd was “below the threshold”.

What follows are binders tested against T8, LIN7B, Q9HAP6 (assay: holdup assay). Conditions: plain residues with an end cap or a label only (N-terminal biotin on a linker: ado-ado).
T8 sequence (Q9HAP6 88-185, limits assumed, looked up): T4 sequence (Q9NUP9 88-185, limits assumed, looked up) with S2A, E13D, I35V, I40V, H65Q, K79S, K89R, S96A
Set-up: key: below the threshold = too weak to quantify, mostly under pKd 3.1 to 4
For B1, the pKd was “below the threshold”.
B2 gave a pKd of 3.89.
With B3 the pKd was 3.81.

What follows are binders tested against T9, PDZD2_2, O15018 (assay: holdup assay). Conditions: plain residues with an end cap or a label only (N-terminal biotin on a linker: ado-ado).
T9 sequence (O15018 329-429, limits assumed, looked up): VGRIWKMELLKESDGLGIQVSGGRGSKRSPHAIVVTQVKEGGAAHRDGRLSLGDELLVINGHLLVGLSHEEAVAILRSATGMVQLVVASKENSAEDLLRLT
Set-up: key: below the threshold = too weak to quantify, mostly under pKd 3.1 to 4
In the case of B1, the pKd is reported as 4.25.
For B2, the pKd was “below the threshold”.
B3 showed a pKd of 5.81.

The binders below were run against Inadl_9, Q8NI35 (assay: holdup assay). Conditions: plain residues with an end cap or a label only (N-terminal biotin on a linker: ado-ado).
Chain of Inadl_9, Q8NI35 (Q8NI35 1530-1615): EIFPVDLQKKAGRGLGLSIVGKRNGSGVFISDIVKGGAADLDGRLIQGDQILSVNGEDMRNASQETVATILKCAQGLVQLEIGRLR
Set-up: key: below the threshold = too weak to quantify, mostly under pKd 3.1 to 4
With B1 the pKd was “below the threshold”.
For B2, the pKd was “below the threshold”.
Binder B3 has a pKd of 3.91.

These binders were tested against T10, HTRA4, P83105 (assay: holdup assay). Conditions: plain residues with an end cap or a label only (N-terminal biotin on a linker: ado-ado).
T10 sequence (P83105 378-476, limits assumed, looked up): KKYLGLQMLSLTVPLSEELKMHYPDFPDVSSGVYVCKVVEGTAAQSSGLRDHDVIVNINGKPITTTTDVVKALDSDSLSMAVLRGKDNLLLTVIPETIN
Set-up: key: below the threshold = too weak to quantify, mostly under pKd 3.1 to 4
For B1, the pKd was “below the threshold”.
In the case of B2, the pKd is reported as “below the threshold”.
Binder B3 has a pKd of 4.51.

These binders were tested against LNX1_3, Q8TBB1 (assay: holdup assay). Conditions: plain residues with an end cap or a label only (N-terminal biotin on a linker: ado-ado).
Chain of LNX1_3, Q8TBB1 (Q8TBB1 500-596): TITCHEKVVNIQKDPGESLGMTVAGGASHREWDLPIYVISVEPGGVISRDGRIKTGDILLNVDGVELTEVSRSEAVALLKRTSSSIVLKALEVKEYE
Set-up: key: below the threshold = too weak to quantify, mostly under pKd 3.1 to 4
In the case of B1, the pKd is reported as “below the threshold”.
B2 was tested, and the pKd was “below the threshold”.
B3 was tested, and the pKd was “below the threshold”.

What follows are binders tested against NHERF4_1, Q86UT5-2 (assay: holdup assay). Conditions: plain residues with an end cap or a label only (N-terminal biotin on a linker: ado-ado).
Chain of NHERF4_1, Q86UT5-2 (Q86UT5 other isoform, or with tags, fused parts or gaps): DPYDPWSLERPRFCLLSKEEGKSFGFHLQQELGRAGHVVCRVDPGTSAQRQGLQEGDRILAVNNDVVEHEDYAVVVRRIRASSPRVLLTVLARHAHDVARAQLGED
Set-up: key: below the threshold = too weak to quantify, mostly under pKd 3.1 to 4
B1 was tested, and the pKd was 3.85.
With B2 the pKd was 3.86.
Work on B3 yielded a pKd of 4.06.

These binders were tested against IL16_4, Q14005 (assay: holdup assay). Conditions: plain residues with an end cap or a label only (N-terminal biotin on a linker: ado-ado).
Chain of IL16_4, Q14005 (Q14005 1229-1329): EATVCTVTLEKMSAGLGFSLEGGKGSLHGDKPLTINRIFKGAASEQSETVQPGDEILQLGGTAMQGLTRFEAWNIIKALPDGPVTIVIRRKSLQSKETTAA
Set-up: key: below the threshold = too weak to quantify, mostly under pKd 3.1 to 4
With B1 the pKd was “below the threshold”.
B2 was tested, and the pKd was “below the threshold”.
In the case of B3, the pKd is reported as “below the threshold”.

These binders were tested against Inadl_3, Q8NI35 (assay: holdup assay). Conditions: plain residues with an end cap or a label only (N-terminal biotin on a linker: ado-ado).
Chain of Inadl_3, Q8NI35 (Q8NI35 359-469): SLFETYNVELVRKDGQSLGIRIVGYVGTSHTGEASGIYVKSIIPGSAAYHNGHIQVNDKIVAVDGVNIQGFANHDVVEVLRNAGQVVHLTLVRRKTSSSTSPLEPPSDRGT
Set-up: key: below the threshold = too weak to quantify, mostly under pKd 3.1 to 4
With B1 the pKd was 3.93.
With B2 the pKd was 3.73.
In the case of B3, the pKd is reported as “below the threshold”.

Each binder was assayed against NHERF4_4, Q86UT5 (assay: holdup assay). Conditions: plain residues with an end cap or a label only (N-terminal biotin on a linker: ado-ado).
Chain of NHERF4_4, Q86UT5 (Q86UT5 464-550): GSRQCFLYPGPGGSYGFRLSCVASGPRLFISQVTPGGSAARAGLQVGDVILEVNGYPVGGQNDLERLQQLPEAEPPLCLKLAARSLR
Set-up: key: below the threshold = too weak to quantify, mostly under pKd 3.1 to 4
B1 was tested, and the pKd was “below the threshold”.
B2 was tested, and the pKd was “below the threshold”.
B3 was tested, and the pKd was “below the threshold”.

These binders were tested against GRID2IP_1, A4D2P6 (assay: holdup assay). Conditions: plain residues with an end cap or a label only (N-terminal biotin on a linker: ado-ado).
Chain of GRID2IP_1, A4D2P6 (A4D2P6 1-87): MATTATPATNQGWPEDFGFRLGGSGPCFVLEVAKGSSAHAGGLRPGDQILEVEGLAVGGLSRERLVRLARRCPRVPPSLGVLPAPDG
Set-up: key: below the threshold = too weak to quantify, mostly under pKd 3.1 to 4
With B1 the pKd was “below the threshold”.
For B2, the pKd was “below the threshold”.
With B3 the pKd was “below the threshold”.

Each binder was assayed against T11, GRIP1_4, Q9Y3R0 (assay: holdup assay). Conditions: plain residues with an end cap or a label only (N-terminal biotin on a linker: ado-ado).
T11 sequence (Q9Y3R0 467-571, limits assumed, looked up): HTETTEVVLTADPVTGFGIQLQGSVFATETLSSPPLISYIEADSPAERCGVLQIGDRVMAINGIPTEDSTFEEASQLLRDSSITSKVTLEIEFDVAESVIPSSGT
Set-up: key: below the threshold = too weak to quantify, mostly under pKd 3.1 to 4
In the case of B1, the pKd is reported as “below the threshold”.
For B2, the pKd was “below the threshold”.
For B3, the pKd was “below the threshold”.

The binders below were run against MAST2, Q6P0Q8 (assay: holdup assay). Conditions: plain residues with an end cap or a label only (N-terminal biotin on a linker: ado-ado).
Chain of MAST2, Q6P0Q8 (Q6P0Q8 1099-1202): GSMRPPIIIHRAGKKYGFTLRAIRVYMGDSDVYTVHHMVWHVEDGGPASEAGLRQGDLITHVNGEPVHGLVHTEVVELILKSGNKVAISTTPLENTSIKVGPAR
Set-up: key: below the threshold = too weak to quantify, mostly under pKd 3.1 to 4
B1 was tested, and the pKd was 4.92.
B2 gave a pKd of 5.64.
In the case of B3, the pKd is reported as “below the threshold”.

The binders below were run against Inadl_6, Q8NI35 (assay: holdup assay). Conditions: plain residues with an end cap or a label only (N-terminal biotin on a linker: ado-ado).
Chain of Inadl_6, Q8NI35 (Q8NI35 1058-1167): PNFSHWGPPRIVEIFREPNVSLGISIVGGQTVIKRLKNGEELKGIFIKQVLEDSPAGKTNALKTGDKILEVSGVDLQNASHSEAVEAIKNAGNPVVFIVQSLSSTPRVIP
Set-up: key: below the threshold = too weak to quantify, mostly under pKd 3.1 to 4
Work on B1 yielded a pKd of 3.56.
B2 showed a pKd of 3.98.
B3 was tested, and the pKd was “below the threshold”.

The binders below were run against MAGI2_5, Q86UL8 (assay: holdup assay). Conditions: plain residues with an end cap or a label only (N-terminal biotin on a linker: ado-ado).
Chain of MAGI2_5, Q86UL8 (Q86UL8 915-1017): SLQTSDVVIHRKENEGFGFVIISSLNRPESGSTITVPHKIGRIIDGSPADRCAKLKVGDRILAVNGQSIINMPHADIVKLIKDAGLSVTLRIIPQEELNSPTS
Set-up: key: below the threshold = too weak to quantify, mostly under pKd 3.1 to 4
B1 gave a pKd of 4.78.
With B2 the pKd was 4.27.
For B3, the pKd was “below the threshold”.

What follows are binders tested against FRMPD2_1, Q68DX3 (assay: holdup assay). Conditions: plain residues with an end cap or a label only (N-terminal biotin on a linker: ado-ado).
Chain of FRMPD2_1, Q68DX3 (Q68DX3 770-861): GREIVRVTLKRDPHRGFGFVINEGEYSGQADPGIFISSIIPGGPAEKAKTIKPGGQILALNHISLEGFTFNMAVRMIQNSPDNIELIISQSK
Set-up: key: below the threshold = too weak to quantify, mostly under pKd 3.1 to 4
In the case of B1, the pKd is reported as “below the threshold”.
B2 was tested, and the pKd was “below the threshold”.
For B3, the pKd was 4.24.
